The text below walks through data of US11833164B2, “Methods of treating Fabry disease in patients having a mutation in the GLA gene” (Amicus Therapeutics, Inc., priority 2019, dated 2023).

This experiment has as its system mutant form of α-Gal A expressed in HEK-293 cells. In words: HEK assay (GLP HEK / Migalastat Amenability Assay): α-Gal A activity in lysates of transiently transfected HEK-293 cells incubated with or without 10 μM migalastat. It counts as cell-based, human. The conditions noted are these: for Absolute increase (% WT) / Relative increase: 10 μM migalastat versus baseline; for Baseline α-Gal A activity (% WT): absence of migalastat; for Baseline α-Gal A activity (% WT) / 10 μM migalastat α-Gal A activity (% WT): percentage of baseline wild-type α-Gal A activity; for Baseline α-Gal A activity (% WT) / Baseline α-Gal A activity / 10 μM migalastat α-Gal A activity / 10 μM migalastat α-Gal A activity (% WT): mean ± SEM; for Baseline α-Gal A activity / 10 μM migalastat α-Gal A activity: lysates of HEK-293 cells transiently transfected with the mutant form; for Baseline α-Gal A activity: incubated 5 days in absence of migalastat; for 10 μM migalastat α-Gal A activity: incubated 5 days with 10 μM migalastat; for 10 μM migalastat α-Gal A activity (% WT): with 10 μM migalastat, 5 days. The gist of the method: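 Activity reported as 4-MU released (nmol/mg/hr), mean±SEM, from lysates of transiently transfected HEK-293 cells expressing mutant α-Gal A, cultured with or without 10 μM migalastat.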

B1: A368P (protein)
chain: MQLRNPELHLGCALALRFLALVSWDIPGARALDNGLARTPTMGWLHWERFMCNLDCQEEPDSCISEKLFMEMAELMVSEGWKDAGYEYLCIDDCWMAPQRDSEGRLQADPQRFPHGIRQLANYVHSKGLKLGIYADVGNKTCAGFPGSFGYYDIDAQTFADWGVDLLKFDGCYCDSLENLADGYKHMSLALNRTGRSIVYSCEWPLYMWPFQKPNYTEIRQYCNHWRNFADIDDSWKSIKSILDWTSFNQERIVDVAGPGGWNDPDMLVIGNFGLSWNQQVTQMALWAIMAAPLFMSNDLRHISPQAKALLQDKDVIAINQDPLGKQGYQLRQGDNFEVWERPLSGLAWAVAMINRQEIGGPRSYTIPVASLGKGVACNPACFITQLLPVKRKLGFYEWTSRLRSHINPTGTVLLQLENTMQMSLKDLL
For B1, the “Absolute increase (% WT)” value came to 25.7 % WT, the Relative increase was 1.3, the “Baseline α-Gal A activity (% WT)” value is on record as 91.7 ± 4.6 % WT and the “Baseline α-Gal A activity” value amounted to 26402 ± 926 nmol/mg/h. Further, the “10 μM migalastat α-Gal A activity” value was 33525 ± 1803 nmol/mg/h and the “10 μM migalastat α-Gal A activity (% WT)” value is 117.4 ± 8.7 % WT.

B2: V369A (protein)
chain: MQLRNPELHLGCALALRFLALVSWDIPGARALDNGLARTPTMGWLHWERFMCNLDCQEEPDSCISEKLFMEMAELMVSEGWKDAGYEYLCIDDCWMAPQRDSEGRLQADPQRFPHGIRQLANYVHSKGLKLGIYADVGNKTCAGFPGSFGYYDIDAQTFADWGVDLLKFDGCYCDSLENLADGYKHMSLALNRTGRSIVYSCEWPLYMWPFQKPNYTEIRQYCNHWRNFADIDDSWKSIKSILDWTSFNQERIVDVAGPGGWNDPDMLVIGNFGLSWNQQVTQMALWAIMAAPLFMSNDLRHISPQAKALLQDKDVIAINQDPLGKQGYQLRQGDNFEVWERPLSGLAWAVAMINRQEIGGPRSYTIAAASLGKGVACNPACFITQLLPVKRKLGFYEWTSRLRSHINPTGTVLLQLENTMQMSLKDLL
B2: the “Absolute increase (% WT)” value is 38.6 % WT, the Relative increase is recorded as 1.5, the “Baseline α-Gal A activity (% WT)” value is given as 77.6 ± 5 % WT and the “Baseline α-Gal A activity” value was 23968 ± 1797 nmol/mg/h. For the same molecule, the “10 μM migalastat α-Gal A activity” value was found to be 35925 ± 2462 nmol/mg/h and the “10 μM migalastat α-Gal A activity (% WT)” value is listed as 116.2 ± 6.3 % WT.

B3: V369L (protein)
chain: MQLRNPELHLGCALALRFLALVSWDIPGARALDNGLARTPTMGWLHWERFMCNLDCQEEPDSCISEKLFMEMAELMVSEGWKDAGYEYLCIDDCWMAPQRDSEGRLQADPQRFPHGIRQLANYVHSKGLKLGIYADVGNKTCAGFPGSFGYYDIDAQTFADWGVDLLKFDGCYCDSLENLADGYKHMSLALNRTGRSIVYSCEWPLYMWPFQKPNYTEIRQYCNHWRNFADIDDSWKSIKSILDWTSFNQERIVDVAGPGGWNDPDMLVIGNFGLSWNQQVTQMALWAIMAAPLFMSNDLRHISPQAKALLQDKDVIAINQDPLGKQGYQLRQGDNFEVWERPLSGLAWAVAMINRQEIGGPRSYTIALASLGKGVACNPACFITQLLPVKRKLGFYEWTSRLRSHINPTGTVLLQLENTMQMSLKDLL
Consider B3, for which the “Absolute increase (% WT)” value is given as 30.3 % WT, the Relative increase stood at 1.4, the “Baseline α-Gal A activity (% WT)” value was 74.2 ± 3.7 % WT and the “Baseline α-Gal A activity” value was determined as 27680 ± 1912 nmol/mg/h. Also, the “10 μM migalastat α-Gal A activity” value came out at 38458 ± 2367 nmol/mg/h and the “10 μM migalastat α-Gal A activity (% WT)” value stood at 104.5 ± 5.6 % WT.

B4: A370G (protein)
chain: MQLRNPELHLGCALALRFLALVSWDIPGARALDNGLARTPTMGWLHWERFMCNLDCQEEPDSCISEKLFMEMAELMVSEGWKDAGYEYLCIDDCWMAPQRDSEGRLQADPQRFPHGIRQLANYVHSKGLKLGIYADVGNKTCAGFPGSFGYYDIDAQTFADWGVDLLKFDGCYCDSLENLADGYKHMSLALNRTGRSIVYSCEWPLYMWPFQKPNYTEIRQYCNHWRNFADIDDSWKSIKSILDWTSFNQERIVDVAGPGGWNDPDMLVIGNFGLSWNQQVTQMALWAIMAAPLFMSNDLRHISPQAKALLQDKDVIAINQDPLGKQGYQLRQGDNFEVWERPLSGLAWAVAMINRQEIGGPRSYTIAVGSLGKGVACNPACFITQLLPVKRKLGFYEWTSRLRSHINPTGTVLLQLENTMQMSLKDLL
Consider B4, for which the “Absolute increase (% WT)” value worked out at 22.9 % WT, the Relative increase worked out at 1.3, the “Baseline α-Gal A activity (% WT)” value came to 78.1 ± 4.4 % WT and the “Baseline α-Gal A activity” value came to 24835 ± 2637 nmol/mg/h. Further, the “10 μM migalastat α-Gal A activity” value stood at 31805 ± 3001 nmol/mg/h and the “10 μM migalastat α-Gal A activity (% WT)” value amounted to 101 ± 5.4 % WT.

B5: A370D (protein)
chain: MQLRNPELHLGCALALRFLALVSWDIPGARALDNGLARTPTMGWLHWERFMCNLDCQEEPDSCISEKLFMEMAELMVSEGWKDAGYEYLCIDDCWMAPQRDSEGRLQADPQRFPHGIRQLANYVHSKGLKLGIYADVGNKTCAGFPGSFGYYDIDAQTFADWGVDLLKFDGCYCDSLENLADGYKHMSLALNRTGRSIVYSCEWPLYMWPFQKPNYTEIRQYCNHWRNFADIDDSWKSIKSILDWTSFNQERIVDVAGPGGWNDPDMLVIGNFGLSWNQQVTQMALWAIMAAPLFMSNDLRHISPQAKALLQDKDVIAINQDPLGKQGYQLRQGDNFEVWERPLSGLAWAVAMINRQEIGGPRSYTIAVDSLGKGVACNPACFITQLLPVKRKLGFYEWTSRLRSHINPTGTVLLQLENTMQMSLKDLL
As to B5, the “Absolute increase (% WT)” value is given as 22.4 % WT, the Relative increase is 1.2, the “Baseline α-Gal A activity (% WT)” value was found to be 87.5 ± 6.1 % WT and the “Baseline α-Gal A activity” value was 27098 ± 2504 nmol/mg/h. Besides, the “10 μM migalastat α-Gal A activity” value came out at 33279 ± 2473 nmol/mg/h and the “10 μM migalastat α-Gal A activity (% WT)” value stood at 109.8 ± 6.8 % WT.

B6: V369F (protein)
chain: MQLRNPELHLGCALALRFLALVSWDIPGARALDNGLARTPTMGWLHWERFMCNLDCQEEPDSCISEKLFMEMAELMVSEGWKDAGYEYLCIDDCWMAPQRDSEGRLQADPQRFPHGIRQLANYVHSKGLKLGIYADVGNKTCAGFPGSFGYYDIDAQTFADWGVDLLKFDGCYCDSLENLADGYKHMSLALNRTGRSIVYSCEWPLYMWPFQKPNYTEIRQYCNHWRNFADIDDSWKSIKSILDWTSFNQERIVDVAGPGGWNDPDMLVIGNFGLSWNQQVTQMALWAIMAAPLFMSNDLRHISPQAKALLQDKDVIAINQDPLGKQGYQLRQGDNFEVWERPLSGLAWAVAMINRQEIGGPRSYTIAFASLGKGVACNPACFITQLLPVKRKLGFYEWTSRLRSHINPTGTVLLQLENTMQMSLKDLL
Take B6: the “Absolute increase (% WT)” value is on record as 19.6 % WT, the Relative increase worked out at 1.5, the “Baseline α-Gal A activity (% WT)” value turned out to be 37.7 ± 2.8 % WT and the “Baseline α-Gal A activity” value came to 11912 ± 1197 nmol/mg/h. For the same molecule, the “10 μM migalastat α-Gal A activity” value came to 18282 ± 1960 nmol/mg/h and the “10 μM migalastat α-Gal A activity (% WT)” value was found to be 57.3 ± 4.8 % WT.

B7: V369I (protein)
chain: MQLRNPELHLGCALALRFLALVSWDIPGARALDNGLARTPTMGWLHWERFMCNLDCQEEPDSCISEKLFMEMAELMVSEGWKDAGYEYLCIDDCWMAPQRDSEGRLQADPQRFPHGIRQLANYVHSKGLKLGIYADVGNKTCAGFPGSFGYYDIDAQTFADWGVDLLKFDGCYCDSLENLADGYKHMSLALNRTGRSIVYSCEWPLYMWPFQKPNYTEIRQYCNHWRNFADIDDSWKSIKSILDWTSFNQERIVDVAGPGGWNDPDMLVIGNFGLSWNQQVTQMALWAIMAAPLFMSNDLRHISPQAKALLQDKDVIAINQDPLGKQGYQLRQGDNFEVWERPLSGLAWAVAMINRQEIGGPRSYTIAIASLGKGVACNPACFITQLLPVKRKLGFYEWTSRLRSHINPTGTVLLQLENTMQMSLKDLL
In the case of B7, the “Absolute increase (% WT)” value is recorded as 19.6 % WT, the Relative increase is given as 1.2, the “Baseline α-Gal A activity (% WT)” value was 79.7 ± 6.8 % WT and the “Baseline α-Gal A activity” value is 30094 ± 3211 nmol/mg/h. For the same molecule, the “10 μM migalastat α-Gal A activity” value came out at 36630 ± 2373 nmol/mg/h and the “10 μM migalastat α-Gal A activity (% WT)” value stood at 99.3 ± 5.5 % WT.

B8: V369G (protein)
chain: MQLRNPELHLGCALALRFLALVSWDIPGARALDNGLARTPTMGWLHWERFMCNLDCQEEPDSCISEKLFMEMAELMVSEGWKDAGYEYLCIDDCWMAPQRDSEGRLQADPQRFPHGIRQLANYVHSKGLKLGIYADVGNKTCAGFPGSFGYYDIDAQTFADWGVDLLKFDGCYCDSLENLADGYKHMSLALNRTGRSIVYSCEWPLYMWPFQKPNYTEIRQYCNHWRNFADIDDSWKSIKSILDWTSFNQERIVDVAGPGGWNDPDMLVIGNFGLSWNQQVTQMALWAIMAAPLFMSNDLRHISPQAKALLQDKDVIAINQDPLGKQGYQLRQGDNFEVWERPLSGLAWAVAMINRQEIGGPRSYTIAGASLGKGVACNPACFITQLLPVKRKLGFYEWTSRLRSHINPTGTVLLQLENTMQMSLKDLL
As for B8, the “Absolute increase (% WT)” value is 5.5 % WT, the Relative increase amounted to 3.3, the “Baseline α-Gal A activity (% WT)” value is 2.6 ± 0.2 % WT and the “Baseline α-Gal A activity” value amounted to 803 ± 59 nmol/mg/h. Besides, the “10 μM migalastat α-Gal A activity” value turned out to be 2628 ± 291 nmol/mg/h and the “10 μM migalastat α-Gal A activity (% WT)” value is reported as 8.1 ± 0.7 % WT.
